Test: soluble on expression in E. coli; label from the status in PepcDB or PDB records

**Q.** For “MGSDKIHHHHHHMASTTPEGLEIRPRHLDFDLPDPMPRHWHSGDAFKTHMFNAMSVLFPDGERFFIDSVRHYRERVEDPALKQQIRGFIGQEGHHSREHLVYSDRLRALGYDIDRLEGGAKRRIRFAQQKLHPSRQLAATAALEHLTAIMADGLLSNPRWLEGADPTMARLWRWHALEETEHKAVAYDVFMLVNGKARLRRRAMVQGTFFFALDTTKGLVHMLKRDGLLWNFKVWRDGIKWLWGKDGVFRSLVGVYLDFYKKDFHPWQHNNLHLIEQYRDQFEPEPKAA”, which “soluble on expression in E. coli” value is on record?
**A.** Its value is “not soluble”.

**Q.** With “MGHHHHHHSHMAIQVDKFNFESFPESPGEKGQFANPKQLEEERREARGLEIHSKLGICWRIPSLKRSGEASVEGLLNQLVLEHLQLAPLQWDVLVDGQPCDREAVAACQVGDPVRLEVRLTNRSPRSVGPFALTVVPFQDHQNGVHNYDLHDTVSFVGSSTFYLDAVQPSGQSACLGALLFLYTGDFFLHIRFHEDSTSKELPPSWFCLPSVHVCALEAQA” as the sequence, how does the “soluble on expression in E. coli” value read?
**A.** Its value is “not soluble”.

**Q.** With “MRGSHHHHHHTDPALRACELLGMSANVPTDICFSFTGLVQRGGGTGPHKDGWGITFYEGKGCRTFKDPQPSFNSPIAKLVQDYPIKSCSVVAHIRQANRGEVALENTHPFTRELWGRNWTYAHNGQLTGYKSLETGNFRPVGETDSEKAFCWLLHKLTQRYPRTPGNMAAVFKYIASLADELRQKGVFNMLLSDGRYVMAYCSTNLHWITRRAPFGVATLLDQDVEIDFSSQTTPNDVVTVIATQPLTGNETWQKIMPGEWRLFCLGERVVGLCGR” as the sequence, how does the “soluble on expression in E. coli” value read?
**A.** Its value is “soluble”.

**Q.** With “QEKSARDLMIAVDLSGSMAVEDFTLPIATNELTNRAKNDTDSSATKSSTNDTGKGEKVNRLVAVKHVLNAFVKSREHDRLGLILFGDAPYLQAPFTDDIATWQALLNESDIGMAGQSTAFGDAIGLAISVFQQSDTQNRVLIVLTDGNDTASKVPPVEAAKVAAARDIKIYTIAIGDPSAVGEEKVDLEVLQAMAEITQGKSFQALNSEELLKVYAEI” as the sequence, how does the “soluble on expression in E. coli” value read?
**A.** The value was “not soluble”.

**Q.** With “MANIEIRQESPSAFYIKVHETDNVAIIVNDHGLKAGTRFPDGLELTEHIPQGHKVALTDIPAHGEIIRYGEVIGYAVRDIPRGSWIDESLVELPKAPPLNTLPLATKVPEPLPPLEGYTFEGYRNADGSVGTKNLLGITTSVHCVAGVVDYVVKVIERDLLPKYPNVDGVVGLNHLYGCGVAINAPAAVVPIRTIHNIALNPNFGGEVMVIGLGCEKLQPERLLEGTEDVPAIAVESASIVRLQDEQHVGFKSMVDDILRVAERHLTKLNQRQRETCPASELVVGMQCGGSDAFSGVTANPAVGYASDLLVRCGATVMFSEVTEVRDAIHLLTPRAINEAVGKRLLDEMAWYDNYLDMGKTDRSANPSPGNKKGGLANVVEKALGSIAKSGKSAIVEVLSPGQRPTKRGLIYAATPASDFVCGTQQVASGITVQVFTTGRGTPYGLMAVPVIKMATRTELANRWYDLMDINAGTIATGEETIEDVGWKLFHFILDVASGRKKTFSDQWGLHNQLAVFNPAPVT” as the sequence, how does the “soluble on expression in E. coli” value read?
**A.** The value was “not soluble”.

**Q.** Which “soluble on expression in E. coli” value does the source give for “MSLYPAEHKEVMVQLMNQGNRSSLMQAWIDDGDTSLPPEKIQVPFMLTPPVAKIGANSGQQVKIKIMPNKLPTNKESIFYLNVLDIPPNSPEQEGKNALKFAMQNRIKLFYRPAGIAPVNKVTFKKLLVNRSGNGLVIKNDSANWVTISDVKANNVKVNYETIMIAPLESQSVNVKSNNANNWHLTIIDDHGNYISDKEGHHHHHH” here?
**A.** Its value is “not soluble”.

**Q.** With “MLLSIIMPAHNAAAYLERTLALLAQQIAGLEQVEVVAIDDASTDETAKILVEFARTHSWLKAISVDFANVGLARQAGIGLAGGQYVTFLDSDDAFLSGGLAWMVNVLRQRAPDLLMTPLQETGQPLDGTEVAGLFQDVVPLSTQQACDLFCEHQRLQGHFAGKCVTRQILLQHDLAAMECYEDMMTTPHWIVEAKSIVWGEVPVYAYYKRPGSLSDRGQTWRYGKEYIRALQSIEAAFAGRIAVWQTAHLWIGFAKDLLKTSTGRQFLDTQPAVAEKIQSISVWKYLVATQVSCKWKIRFLRVRLRLLEHHHHHH” as the sequence, how does the “soluble on expression in E. coli” value read?
**A.** Its value is “soluble”.

**Q.** For “MAHHHHHHMGISVSHLLERLRTLFEPLEVVCALQLKCLLETRQLDYCNVSLNELQRAEAGLRSLLVDHPLDIEVGAQWEHLEDELQRLHVRFSVPVPTFRLLVRRSARALRSAVRALGWDGKIQRRLWQEEGEEPRDDGVQEPLRAFDAGGLSTCTVDEICNEGGVQDRSAAVFSAVAKLYHHRLALGAQSLVAAERLGPALGANVRAASRVPSLTLPNSAADPTHPRFKADLYAVSPDALSCTAARREAYAAS”, which “soluble on expression in E. coli” value is on record?
**A.** The value was “not soluble”.

**Q.** Which “soluble on expression in E. coli” value does the source give for “AMLAELTHRCPLACPYCSNPLALHGKARELDTQTWARAFDEAAALGVLQLHLSGGEPASRPDLVELTRAAHEAGLYTNLITSGIGLTPARLDALEAVGLDHIQLSLQGTTPDLADRIGGYKGGFARKMAVAAEIKARGIPLTLNAVMHRHNLDDLERTIELAIELGARRLEVACVQFHGWATRNRAALLPSRAQTEAAKRIVAEAEARLRGTLAFDFVPPDYYADYPKACMGGWGSAGLNIAPDGTVLPCHAA” here?
**A.** Its value is “not soluble”.

**Q.** With “MGSDKIHHHHHHMTNRYDAVIIGAGHNGLVCGAYLARKGFKVCLLERRELAGGAAVSEAVWPGYRVSTASYTMALLQPRIIDELELAKYGYEIVVPPPMLHLYGDGRSLLFRPEGERLSADIARFSEADADAYGKYRAHMARLGKMVAGMLWETPPDPADSTLSARSRLLGFAWRFRDMGEQFYDLYDVLTLSARDYLARWFESDEMIAALGFYASCGGAATSICSPGSAYVLLRGFIRDHTTSAGPAGFVRGGMGSISEAIAASGKAYGMEVRCNAPVASVEISGERATGVRLSSGELIEAGCVISNVATKVLFQQLVGAQNVPPEFLARVRQIRDRSTAFKVNLALRRLPTFKDFDARSAGFAYPAQVRLAPSVEYLERAWDAAKYGEISPRPPLVVLTPSAVDPGVAPKGKHLMSIFGQHAPYALRDGPWDDAQRERLYQITLDTLAAYAPDIRECIDDAQVLSPADLERIFALPGGHVHHGELSADQIFFRRPVQGAADYCTPVKGLYQCGASVHPGGGVTGVPGYNAAHVVVRRERH” as the sequence, how does the “soluble on expression in E. coli” value read?
**A.** The value was “not soluble”.

**Q.** Which “soluble on expression in E. coli” value does the source give for “MIVERVLYNIKDIDLEKLEVDFVDIEWYEVQKKILRKLSSNGIEVGIRNSNGEALKEGDVLWQEGNKVLVVRIPYCDCIVLKPQNMYEMGKTCYEMGNRHAPLFIDGDELMTPYDEPLMQALIKCGLSPYKKSCKLTTPLGGNLHGYSHSHSH” here?
**A.** The value was “not soluble”.

**Q.** Which “soluble on expression in E. coli” value does the source give for “MIVYGLYKSPFGPITVAKNEKGFVMLDFCDCAERSSLDNDYFTDFFYKLDLYFEGKKVDLTEPVDFKPFNEFRIRVFKEVMRIKWGEVRTYKQVADAVKTSPRAVGTALSKNNVLLIIPCHRVIGEKSLGGYSRGVELKRKLLELEGIDVAKFIEK” here?
**A.** Its value is “soluble”.

**Q.** For “MAQPYLPAEKFLSRKQETILLDEDEPAVVSSVRISPKKPYHVATTSSVRLTLYDTVVCEPLNLFSRFKKGVCSIDFRHDGRLLAIGGDEGKVRIFDVEKTTGSSKVALRVMQASQSTVKSVHFSPRGDTVFSMADDGKIKQYRVADTAYGVNAVPIIEIQAHEDAIRCGAVSSINDHIVLTGGYDHKVRLWDIRSKEKSLELDCEHPVESVLFLPGEQLIATAAGPIVKIWDTTTGRQLTALQAHYKTVTSLRLATNSTCLLSAGIDRRVNAFRTTNYSLINSWSMPSPVLDIDVSRDDQTMAIGMGNLLALYRRAEIKKEATASAAIEDKRSLIRTSAPPVKLVEKDRDMQKVDVVAKNADKLKIPKIDGMLSNFKHAAVIKLLFGGKFRSAMDTAVVSYLRVIVMRGAIHRALAGQERSVQKNILVFLNHNLYKAQYFSTLKEVVNAFFDVYALEKLDKDVVKHVQSLRGSLGRELEVQKMISSLIGSIDLIVSTTKMNVKSSSTALIEDNDVFGEPTIRARDLDELKPSDQGAEEEYEENMQIN”, which “soluble on expression in E. coli” value is on record?
**A.** The value was “not soluble”.

**Q.** For “KLDKIDNKNRRIRKKLFLGEFAILGFEISCETDINDFDRYDAFVDDFIDYIDTLGLCFGGGGLELFEGFLCSTERYGSATEEQKAQVVAWLEARPEVKSAKAGDLLDANY”, which “soluble on expression in E. coli” value is on record?
**A.** Its value is “not soluble”.

**Q.** With “MDRISQLSDDLLLQILSFIPGKDVVATSLLSKRWQSLWMLVSELEYDDSYHTGDYKSFSQFVYRSLLSNNAPVIKHLHLNLGPDCPAIDIGLWIGFALTRRLRQLKINIRTSSNDASFSLPSSLYTSDTLETLRLINFVLLDVPSSVCLPSLKVLHLKTVDYEDDASLPSLLFGCPNLEELFVERHDQDLEMDVTFVVPSLRRLSMIDKNYGQCDRYVIDVPSLKYLNITDDAVYDVRQIENMPELVEAHVDITQGVTHKFLRALTSVRQLSLCLSLSEKQHESGLCGIETPIGWKLPSSVPECLLFSLEAFEWIGYKGRRGDREVATYVLKNAACLRTAKFSPESTDVGEKYHMLKELASVPTASTSSKLLFD” as the sequence, how does the “soluble on expression in E. coli” value read?
**A.** Its value is “soluble”.

**Q.** Which “soluble on expression in E. coli” value does the source give for “MAHLSYWFKQALELEQPQPAKPLNEDIAADVAIIGGGYTGLWTAIMIKQQAPKKHVVVIEKGLCGSGASGANGGCMLTWSTKFPTLKRLFGEAQAAWLVKESEQAVLEIDAFCKQHHIDAQLSLKGVYYTATNHVQAGSMQPVVDELSRLGVNSWRRCKEDELHANTGSPRHLEGFHSSVAASVQPALLARGLRRVALEMGIEIFENTPMTKLDFGQPATVSTPDAQIKAKQVVLALNAWMVEHFTQFKNSIVVVSSDMVITKPLGESLRKTGWQAGTSVLDSRIFVHYYRDTPDGRLMLGKGGNQFSFNNQVDVMFNKPTRYQNLLRKSFDKLFPSLKEAEFEYSWTGGSDRSTSGFPFFGKLNEQRNVFYGFGYSGNGVAQTRMGGKILSSMVLGLDNEWTRSGLAKGPLGHFPPEPFRWIGAMTVRNAVRRKEEAEDCGQKPFIWDKWLAKLAGPAGKADKLDLEHHHHHH” here?
**A.** Its value is “soluble”.

**Q.** Which “soluble on expression in E. coli” value does the source give for “MFARDIGIDLGTANVLIHVKGKGIVLNEPSVVAIDRNTGKVLAVGEEARSMVGRTPGNIVAIRPLKDGVIADFEITEAMLKYFINKLDVKSFFSKPRILICCPTNITSVEQKAIREAAERSGGKTVFLEEEPKVAAVGAGMEIFQPSGNMVVDIGGGTTDIAVLSMGDIVTSSSIKMAGDKFDMEILNYIKRKYKLLIGERTSEDIKIKVGTVFPGARSEELEIRGRDMVTGLPRTITVCSEEITEALKENAAVIVQAAKGVLERTPPELSADIIDRGVILTGGGALLHGIDMLLAEELKVPVLIAENPMHCVAVGTGIMLENIDKLPRRALK” here?
**A.** Its value is “not soluble”.

**Q.** With “MGSDKIHHHHHHMKIAYYLPSLQAPGGIERIVTFKANYFAEHFEGYDITIITSEQMGKAPHFPLSPKVKHIDLGVSFDLPYSQSIVSKVLKYPFRYYRFKQRLSNLLNELKPDITISTMRRELNFITKLKDGSLKIGEFHVSRYAYGAEALKRKSPIVNMIKKRWANRFVKNLSKLSRVIILTSEGAKDWPELTNISIIPNPISTPVEGKQTDILSHNAIAVGRYAPQKGFDMLIPAWSIVAQRHPDWKLHIYGEGDLKEKFTKLIDELQLNNNCLLHHTVSNIAEKYCMSSIFVLSSRYEGFGLVLAEAMSCGIPCVSFDCPHGPSNIIKDHEDGLLVEKENIKELADKICYLIENENVRIKMGHKARENVKRFLPENVMPQWKNLFESLTYSSK” as the sequence, how does the “soluble on expression in E. coli” value read?
**A.** Its value is “not soluble”.

**Q.** With “MNKTILALDTATEACSVALLHNGNITTLDELSPRNHTQRILPMVDELLSQANISIKQVDVLAFGRGPGSFTGVRVGVSVAQGLALGANLPVVAISNLLAMAQAAYQQLRANNVIALIDARMNEVYFAQYQRIGEHWHTIVEEQVCSPETAIAQMKINDNSVVVGTGWAAYPQFYVAKLPLSVSDISLPSAKDMLELALKAVENGELQTALDIEPIYLRNEVTWQKLPHKRLEHHHHHH” as the sequence, how does the “soluble on expression in E. coli” value read?
**A.** The value was “soluble”.

**Q.** Which “soluble on expression in E. coli” value does the source give for “MGSDKIHHHHHHMSTAVTFFGQHVLNRVSFLRCSKEFIKKSLNHDSTVFIPFIEGEALISPENGDLVQLSNSVKSYKNILSAIVPLYTTLLNTTRSRSDESGINVTFLGLLEGTDSAFNFEWSNISYKGTPYFGLDIRVTESTLFKKVDFEPIFSYPKVTRDHIFKQTNEDASLYSQGKMYLDWLAKYKFCPGCGSPLFPVEAGTKLQCSNENRNVYCNVRDARINNVCFPRTDPTVIIALTNSDYSKCCLARSKKRYGDFVLYSTIAGFMEPSETIEEACIREIWEETGISCKNIDIVRSQPWPYPCSLMIGCLGIVQFNSKNEVINLNHDDELLDAQWFDTTEIIQALDKYAGGYRVPFKNDINLPGSTTIAFQLINHVCENYKNLRKTSSSHL” here?
**A.** The value was “not soluble”.

— the DeepSol protein solubility set
